# Values quoted from earlier work in patent publication US20250304973.
# Target: alpha-thrombin (native) (Homo sapiens) (UniProt P00734+P00734)
# Conditions: CITED; linker not given
substance,measurement,value
HD1-22 bivalent (HD1 linked to HD22),Kd,0.65 nM
